Ends that are not written are not given here. * marks the point of attachment. Biotin = O=C1N[C@H]2[C@H](CS[C@H]2CCCCC(=O)*)N1; PEG (amino-terminated) = not defined here; cellulose membrane = not defined here
T1: human adiponectin (R&D Systems) (human, UniProt Q15848 19-244)
T1 construct: Bought protein; also called ACRP30; GBP28
T1 sequence (looked up): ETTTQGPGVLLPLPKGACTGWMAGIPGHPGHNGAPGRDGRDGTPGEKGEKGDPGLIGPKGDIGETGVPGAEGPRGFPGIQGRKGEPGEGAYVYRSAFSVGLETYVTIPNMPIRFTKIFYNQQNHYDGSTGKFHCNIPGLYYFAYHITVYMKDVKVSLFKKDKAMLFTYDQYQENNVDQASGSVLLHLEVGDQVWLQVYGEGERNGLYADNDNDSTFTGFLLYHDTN

B1: peptide consisting of the amino-acid sequence represented by SEQ ID NO: 3 (peptide)
peptide: LLHGHRPPMP-{PEG (amino-terminated)-cellulose membrane}
modifications: reading uncertain
notes: Spot-synthesised on a cellulose membrane
B2: peptide consisting of the amino-acid sequence represented by SEQ ID NO: 1 (peptide)
peptide: VRVLTLPL-{PEG (amino-terminated)-cellulose membrane}
modifications: reading uncertain
notes: as for B1
B3: peptide consisting of the amino-acid sequence represented by SEQ ID NO: 4 (peptide)
peptide: FRIHTETG-{PEG (amino-terminated)-cellulose membrane}
modifications: reading uncertain
notes: as for B1
B4: peptide consisting of the amino-acid sequence represented by SEQ ID NO: 15 (peptide)
peptide: ILLPLRIN-{PEG (amino-terminated)-cellulose membrane}
modifications: reading uncertain
notes: Spot-synthesised on a cellulose membrane; also called ILLPLRIN
B5: peptide consisting of the amino-acid sequence represented by SEQ ID NO: 7 (peptide)
peptide: IALLIMGS-{PEG (amino-terminated)-cellulose membrane}
modifications: reading uncertain
notes: as for B1
B6: peptide consisting of the amino-acid sequence represented by SEQ ID NO: 10 (peptide)
peptide: RQTRAGVF-{PEG (amino-terminated)-cellulose membrane}
modifications: reading uncertain
notes: as for B1
B7: peptide consisting of the amino-acid sequence represented by SEQ ID NO: 5 (peptide)
peptide: ILTMLRPNMYF-{PEG (amino-terminated)-cellulose membrane}
modifications: reading uncertain
notes: as for B1
B8: peptide consisting of the amino-acid sequence represented by SEQ ID NO: 9 (peptide)
peptide: RFATPKHR-{PEG (amino-terminated)-cellulose membrane}
modifications: reading uncertain
notes: as for B1
B9: peptide consisting of the amino-acid sequence represented by SEQ ID NO: 6 (peptide)
peptide: APLQEKVVFG-{PEG (amino-terminated)-cellulose membrane}
modifications: reading uncertain
notes: as for B1
B10: peptide consisting of the amino-acid sequence represented by SEQ ID NO: 11 (peptide)
peptide: MHFTIAEG-{PEG (amino-terminated)-cellulose membrane}
modifications: reading uncertain
notes: as for B1
B11: peptide consisting of the amino-acid sequence represented by SEQ ID NO: 2 (peptide)
peptide: LTLPLQAHHAME-{PEG (amino-terminated)-cellulose membrane}
modifications: reading uncertain
notes: as for B1
B12: peptide consisting of the amino-acid sequence represented by SEQ ID NO: 8 (peptide)
peptide: MGSFVPW-{PEG (amino-terminated)-cellulose membrane}
modifications: reading uncertain
notes: Spot-synthesised on a cellulose membrane; also called MGSFVPW
B13: peptide consisting of the amino-acid sequence represented by SEQ ID NO: 13 (peptide)
peptide: GFVKATTV-{PEG (amino-terminated)-cellulose membrane}
modifications: reading uncertain
notes: as for B1
B14: peptide consisting of the amino-acid sequence represented by SEQ ID NO: 14 (peptide)
peptide: ITPIHWVK-{PEG (amino-terminated)-cellulose membrane}
modifications: reading uncertain
notes: as for B1
B15: peptide consisting of the amino-acid sequence represented by SEQ ID NO: 12 (peptide)
peptide: FLGLGLSGVVPT-{PEG (amino-terminated)-cellulose membrane}
modifications: reading uncertain
notes: as for B1

Target: T1, human adiponectin (R&D Systems)
Test: peptide spot on cellulose membrane, sandwich enzyme immunoassay with HRP-tagged anti-adiponectin antibody, fluorescence
Protocol: First, a cellulose membrane was soaked in ethanol. Then, the cellulose membrane was continuously washed with phosphate buffered saline (PBS) (pH 7.4) so that ethanol contained in the cellulose membrane was replaced with PBS. In order that nonspecific binding is inhibited, the cellulose membrane was incubated overnight in a blocking solution (PBS containing 1% milk powder).
Then, the cellulose membrane was incubated for 1 hour in a blocking solution (PBS containing 1% milk powder) which contains 0.25 μg/mL human adiponectin (R&D Systems). Then, the cellulose membrane was washed with PBST (PBS containing 0.1% (v/v) Tween 20). Then, the cellulose membrane was incubated for 1 hour in a blocking solution containing […] anti-human adiponectin antibody (R&D Systems) which is tagged with HRP, and then washed with PBST five times.
After that, 100 μM fluorescent substrate (Amplex Red (Invitrogen)) containing 1 mM hydrogen peroxide was added to the cellulose membrane, and then they react with each other for 10 minutes. A fluorescent intensity in a synthesis spot was measured in such a manner that an […] wavelength of 595 nm of fluorescence from the fluorescent substrate was measured by a fluorescence imager (GE Healthcare) by exciting, with light of 540 nm, the fluorescent substrate in the synthesis spot. A bond strength of the peptide was worked out from the fluorescent intensity in the synthesis spot.

Binding result, binds:
B1
B2
B3
B4
B5
B6
B7
B8
KFATPKHR [peptide having the amino-acid sequence represented by SEQ ID NO: 19]
B9
B10
B11
B12
MGSFVPY-{PEG (amino-terminated)-cellulose membrane} (reading uncertain, also called MGSFVPY) [peptide having the amino-acid sequence represented by SEQ ID NO: 18]
B13
B14
B15

Target: T1, human adiponectin (R&D Systems)
Test: adiponectin coated on microplate, 1 mM biotin-tagged peptide, HRP-streptavidin, TMB absorbance at 450 nm
Protocol: 5 μg/mL adiponectin (R&D Systems) prepared with PBS was dispensed to wells of a 96-well microplate in an amount of 100 μL per well. Then, the peptides were incubated for 1 hour at 37° C. Adiponectin was thus immobilized in the wells. In order to inhibit nonspecific binding, a blocking solution (Protein-Free Blocking Buffer, PIERCE) was then added to the wells in an amount of 300 μL per well. Then, the peptides were incubated for 2 hours at room temperature. Then, the wells were washed three times with PBST (PBS containing 0.1% (v/v) Tween 20). Then, 1 mM biotin-tagged peptide was added to the wells in an amount of 100 μL per well. Then, the peptides were incubated for 1 hour at room temperature. Then, the wells were washed with PBST again.
Then, HRP-tagged streptavidin (R&D Systems) diluted with 200 parts of the blocking solution (Protein-Free Blocking Buffer, PIERCE) was added to the well in an amount of 100 μL per well. Then, the streptavidin was incubated for 1 hour at room temperature. Then, the wells were washed with PBST. Then, TMB (tetramethylbenzidine) was added to the wells in an amount of 100 μL per well so that they react with each other for 20 minutes. Then, the reaction was stopped by adding 1 M of HCL to the wells in an amount of 100 μL per well. Then, an absorbance at 450 nm was measured by use of a microplate reader (Bio-Rad).

Binding result, binds:
ILLPLRINK(Biotin)
ITPIHWVKK(Biotin)
